We go through four molecules from US20160376339A1 (CURACLE, published 2016).

Where no end group is shown, it is not given here.

Assay [1] addresses T1, Flag-PDK1 (UniProt O15530 1-556, limits assumed).
T1 construct: Expressed in HEK293T cells for co-immunoprecipitation; not shown: Flag tag
T1 sequence (looked up): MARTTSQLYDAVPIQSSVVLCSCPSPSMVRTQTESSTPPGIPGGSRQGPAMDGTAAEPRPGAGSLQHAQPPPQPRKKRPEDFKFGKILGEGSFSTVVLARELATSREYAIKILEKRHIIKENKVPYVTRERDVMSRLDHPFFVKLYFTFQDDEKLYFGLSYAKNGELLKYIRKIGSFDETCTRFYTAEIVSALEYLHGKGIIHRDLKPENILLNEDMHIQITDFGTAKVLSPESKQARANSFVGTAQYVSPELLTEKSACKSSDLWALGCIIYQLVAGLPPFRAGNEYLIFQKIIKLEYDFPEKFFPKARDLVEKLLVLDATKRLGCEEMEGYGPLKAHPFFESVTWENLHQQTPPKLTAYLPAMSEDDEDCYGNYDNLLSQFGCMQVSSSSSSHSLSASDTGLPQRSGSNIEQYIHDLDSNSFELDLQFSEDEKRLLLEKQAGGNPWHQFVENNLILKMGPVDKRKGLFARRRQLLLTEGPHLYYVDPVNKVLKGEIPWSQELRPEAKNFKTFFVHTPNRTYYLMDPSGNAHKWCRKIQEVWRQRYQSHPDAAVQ
The assay can be described thus: co-immunoprecipitation of GFP-tagged deletion mutants with Flag-PDK1.

For assay [2], the target named is T1, Flag-PDK1. Put plainly: co-immunoprecipitation of GFP-tagged truncated AMIGO2 with Flag-PDK1.
Source text: The immunoprecipitated proteins were obtained by using protein A-agarose beads (Upstate Biotechnology), and detected by SDS-PAGE.
Assay [3] deals with T2, His-tagged PH domain of PDK1 (purified) (UniProt O15530 409-556, limits assumed).
T2 construct: domain: PH domain; Expressed in E. coli BL21 and purified on Ni2+-NTA-agarose; also called His-PH; His-tagged PDK1PH; not shown: His tag from vector pET32a
T2 sequence (looked up): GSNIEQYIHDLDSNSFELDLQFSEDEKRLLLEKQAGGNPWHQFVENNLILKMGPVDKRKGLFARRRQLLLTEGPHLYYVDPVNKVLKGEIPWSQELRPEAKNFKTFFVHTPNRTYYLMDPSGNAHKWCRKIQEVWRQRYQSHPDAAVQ
The assay can be described thus: Far-western analysis and GST pull-down with purified proteins.

B1: AMIGO2^ΔCD (GFP-tagged AMIGO2 with residues 420-522 deleted) (receptor)
chain: VCPTACICATDIVSCTNKNLSKVPGNLFRLIKRLDLSYNRIGLLDSEWIPVSFAKLNTLILRHNNITSISTGSFSTTPNLKCLDLSSNKLKTVKNAVFQELKVLEVLLLYNNHISYLDPSAFGGLSQLQKLYLSGNFLTQFPMDLYVGRFKLAELMFLDVSYNRIPSMPMHHINLVPGKQLRGIYLHGNPFVCDCSLYSLLVFWYRRHFSSVMDFKNDYTCRLWSDSRHSRQVLLLQDSFMNCSDSIINGSFRALGFIHEAQVGERLMVHCDSKTGNANTDFIWVGPDNRLLEPDKEMENFYVFHNGSLVIESPRFEDAGVYSCIAMNKQRLLNETVDVTINVSNFTVSRSHAHEAFNTAFTTLAACVASIVLVLLYLYL
notes: The range 1-419 is derived from it; also called AMIGO2 without cytosolic Domain; not shown: EGFP tag
As for B1, the binding result with Flag-PDK1 [1] is recorded as “no binding”.

B2: AMIGO2^457aa (GFP-tagged AMIGO2 truncated after residue 457) (receptor)
chain: VCPTACICATDIVSCTNKNLSKVPGNLFRLIKRLDLSYNRIGLLDSEWIPVSFAKLNTLILRHNNITSISTGSFSTTPNLKCLDLSSNKLKTVKNAVFQELKVLEVLLLYNNHISYLDPSAFGGLSQLQKLYLSGNFLTQFPMDLYVGRFKLAELMFLDVSYNRIPSMPMHHINLVPGKQLRGIYLHGNPFVCDCSLYSLLVFWYRRHFSSVMDFKNDYTCRLWSDSRHSRQVLLLQDSFMNCSDSIINGSFRALGFIHEAQVGERLMVHCDSKTGNANTDFIWVGPDNRLLEPDKEMENFYVFHNGSLVIESPRFEDAGVYSCIAMNKQRLLNETVDVTINVSNFTVSRSHAHEAFNTAFTTLAACVASIVLVLLYLYLTPCPCKCKTKRQKNMLHQSNAHSSILSPGPASDASADE
notes: The range 1-457 is read from the name and from the reverse primer with its stop codon; also called 457aa construct; not shown: EGFP tag
B2: in the assay with Flag-PDK1 [2], the binding result was “no binding”.

B3: GST-tagged AMIGO2 420-454 (other)
chain: TPCPCKCKTKRQKNMLHQSNAHSSILSPGPASDAS
modifications: cysteine pairing not given here; also: GST tag of pGEX 4T1 (sequence not given here)
notes: Same forward primer and linker as GST-CD; not shown: glutathione S-transferase tag of vector pGEX 4T1
Consider B3, for which the binding result in assay [3] is “no binding”.

B4: GST-tagged AMIGO2 420-464 (other)
chain: TPCPCKCKTKRQKNMLHQSNAHSSILSPGPASDASADERKAGAGK
modifications: cysteine pairing not given here; also: GST tag of pGEX 4T1 (sequence not given here)
notes: as for B3
Consider B4, for which the binding result in assay [3] is on record as “no binding”.
